The experiment deals with CH505 transmitted founder gp120 (HIV-1 CH505 transmitted/founder, UniProt M4M3Q1, strain). In words: SPR. The conditions noted are these: both partners purified.

B1: DH753 monoclonal antibody (IgG1) (antibody, V domains shown)
VH: EVHLVESGGGLVQPGGSLRLSCEVSGLTFSNSWMSWVRQAPGKGLEWVGFIKTKADGGTAAYAESVKGRFTISRDDSKNTVFLQMKSLKTEDTAVYYCQGAVVISHEYIEIWGQGALVTVSS
VL: QSVLTQPPSASEAARKSVTISCSGGSSNIGDDSVSWYQQVPGTAPKLLIYYNDRRASGVSDRFSGSKSGTSASLAINGLQSEDEADYYCAAWDDSLSAYIFGSGTRLTVL
notes: copies: 2 + 2
Turning to B1, the binding result is listed as “binds”.

B2: DH727.2 monoclonal antibody (IgG1) (antibody, V domains shown)
VH: QVQLVQSGAEVKKPGASVKLSCKASGNTFSIYGISWVRQAPGQGLEWMGGIIPPAGLTNYVQRFQGRVTITADTSTTTVYMELSSLTSEDTAVYYCAIRIGRGFDYWGQGVLVTVSS
VL: DIVMTQSPLSLPVTPGETASISCRSSQSLLDSEDGNTYLEWYLQKPGQSPQALIYEASNRASGVPDRFSGSGSDTDFTLKISRVEAEDVGIYYCMQTIEYPFTFGPGTKVDIK
notes: copies: 2 + 2
For B2, the binding result is “binds”.
